Experimental data taken from patent US20030207791A1, “Materials and methods relating to the treatment of leukaemias” (priority 2000, published 2003).

T1: GST-NCoR (Mus musculus, UniProt Q60974)
T1 construct: made in house
T1 sequence (Q60974 1782-2453): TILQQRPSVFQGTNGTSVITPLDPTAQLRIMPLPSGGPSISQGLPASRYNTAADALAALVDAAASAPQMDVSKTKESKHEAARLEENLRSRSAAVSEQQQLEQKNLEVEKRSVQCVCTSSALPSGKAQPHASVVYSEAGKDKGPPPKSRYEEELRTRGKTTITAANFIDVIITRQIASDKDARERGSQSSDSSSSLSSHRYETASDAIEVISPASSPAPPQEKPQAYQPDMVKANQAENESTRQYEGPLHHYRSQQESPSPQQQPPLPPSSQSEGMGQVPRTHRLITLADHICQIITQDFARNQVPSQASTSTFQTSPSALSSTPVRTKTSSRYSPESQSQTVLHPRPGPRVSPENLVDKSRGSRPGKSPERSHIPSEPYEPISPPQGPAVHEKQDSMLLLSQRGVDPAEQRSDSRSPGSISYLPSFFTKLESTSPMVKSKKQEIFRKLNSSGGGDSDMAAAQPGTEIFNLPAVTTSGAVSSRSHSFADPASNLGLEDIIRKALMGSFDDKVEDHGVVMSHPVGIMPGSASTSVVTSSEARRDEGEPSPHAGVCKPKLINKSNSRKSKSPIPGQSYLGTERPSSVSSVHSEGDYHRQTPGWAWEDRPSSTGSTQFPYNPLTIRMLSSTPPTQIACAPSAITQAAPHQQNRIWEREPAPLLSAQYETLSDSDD

B1: p53-RAR: RAR fused C-terminally to the tetramerization domain present in p53 (protein)
chain: GEYFTLQIRGRERFEMFRELNEALELKDAQAGMASNSSSCPTPGGGHLNGYPVPPYAFFFPPMLGGLSPPGALTTLQHQLPVSGYSTPSPATIETQSSSSEEIVPSPPSPPPLPRIYKPCFVCQDKSSGYHYGVSACEGCKGFFRRSIQKNMVYTCHRDKNCIINKVTRNRCQYCRLQKCFEVGMSKESVRNDRNKKKKEVPKPECSESYTLTPEVGELIEKVRKAHQETFPALCQLGKYTTNNSSEQRVSLDIDLWDKFSELSTKCIIKTVEFAKQLPGFTTLTIADQITLLKAACLDILILRICTRYTPEQDTMTFSDGLTLNRTQMHNAGFGPLTDLVFAFANQLLPLEMDDAETGLLSAICLICGDRQDLEQPDRVDMLQEPLLEALKVYVRKRRPSRPHMFPKMLMKITDLRSISAKGAERVITLKMEIPGSMPPLIQEMLENSEGLDTLSGQPGGGGRDGGGLAPPPGSCSPSLSPSSNRSSPATHSP
B2: PML-RAR: leukaemia-associated chimeric transcription factor, fusion of PML and RAR (protein)
chain: MEPAPARSPRPQQDPARPQEPTMPPPETPSEGRQPSPSPSPTERAPASEEEFQFLRCQQCQAEAKCPKLLPCLHTLCSGCLEASGMQCPICQAPWPLGADTPALDNVFFESLQRRLSVYRQIVDAQAVCTRCKESADFWCFECEQLLCAKCFEAHQWFLKHEARPLAELRNQSVREFLDGTRKTNNIFCSNPNHRTPTLTSIYCRGCSKPLCCSCALLDSSHSELKCDISAEIQQRQEELDAMTQALQEQDSAFGAVHAQMHAAVGQLGRARAETEELIRERVRQVVAHVRAQERELLEAVDARYQRDYEEMASRLGRLDAVLQRIRTGSALVQRMKCYASDQEVLDMHGFLRQALCRLRQEEPQSLQAAVRTDGFDEFKVRLQDLSSCITQGKDAAVSKKASPEAASTPRDPIDVDLPEEAERVKAQVQALGLAEAQPMAVVQSVPGAHPVPVYAFSIKGPSYGEDVSNTTTAQKRKCSQTQCPRKVIKMESEEGKEARLARSSPEQPRPSTSKAVSPPHLDGPPSPRSPVIGSEVFLPNSNHVASGAGEAIETQSSSSEEIVPSPPSPPPLPRIYKPCFVCQDKSSGYHYGVSACEGCKGFFRRSIQKNMVYTCHRDKNCIINKVTRNRCQYCRLQKCFEVGMSKESVRNDRNKKKKEVPKPECSESYTLTPEVGELIEKVRKAHQETFPALCQLGKYTTNNSSEQRVSLDIDLWDKFSELSTKCIIKTVEFAKQLPGFTTLTIADQITLLKAACLDILILRICTRYTPEQDTMTFSDGLTLNRTQMHNAGFGPLTDLVFAFANQLLPLEMDDAETGLLSAICLICGDRQDLEQPDRVDMLQEPLLEALKVYVRKRRPSRPHMFPKMLMKITDLRSISAKGAERVITLKMEIPGSMPPLIQEMLENSEGLDTLSGQPGGGGRDGGGLAPPPGSCSPSLSPSSNRSSPATHSP

Assays:
[1] = tested on: murine hematopoietic progenitors (lin-); assay: In vitro differentiation of murine hematopoietic progenitor cells transduced with retroviral constructs; assay type: cell-based; settings: for effect on differentiation of transduced progenitors: compared with control cells
Description: FIG. 5. A heterologous oligomerization domain activates the transforming potential of RAR. (A-B) p53-RAR form oligomers. (A) Nuclear extracts from COS-1 cells transfected with expression vectors for p53-RAR or RAR were incubated with tritiated RA (10 nM), fractionated and analysed as described in FIG. 3A. Note that the low MW peak of RA-binding capacity (coinciding with RAR) in p53-RAR cells derives from expression of wild type RAR, starting from its own ATG-conserved in the p53-RAR expression vector (see below)-. (B) Fractions from gel filtration of in vitro translated, ^35-S labelled p53-RAR were analysed by SDS-PAGE, followed by autoradiography. Note that two products are generated in the reaction: full-length p53-RAR, fractionating in oligomeric complexes, and RAR, starting from the internal ATG site of RAR and fractionating as a monomer. (C-D) Effects of RAR chimeric proteins on differentiation of murine hematopoietic progenitors. Lin-cells were transduced with the indicated retroviral vectors and then sorted by FACS on the basis of their GFP positivity. In the case of ΔCC-PML-RAR, GFP+ cells were sorted in GFP^high or GFP^low expressors. After sorting, cells were either plated in differentiation medium in the absence or in the presence of RA (3 nM or 1 μM) (C), or analysed by Western blot (D). C, control, P-R, PML-RAR, ΔCC-P-R, ΔCC-PML-RAR, G-PR, GFP-PML-RAR, G-ΔCCPR, GFP-ΔCC-PML-RAR, G-p53R, GFP-p53-RAR. As described, RA delays myeloid differentiation of control cells, leading to a maximum 20-30% reduction in the number of Mac1 + cells (Purton et al., 1999). This effect is counter-acted by expression of PML-RAR and by high levels of ΔCC-PML-RAR. […]
The capacity of p53-RAR to block differentiation was evaluated using primary hematopoietic precursors purified from murine bone marrow on the basis of the absence of surface differentiation antigens (lin-see methods). […] After 8-10 days, colonies were pooled and analysed for the expression of myeloid differentiation markers (Mac-1 and GR-1). […]

GST-NCoR = molecular target: T1, GST-NCoR; assay: GST-NCoR pull-down assay with in vitro translated 35S labelled proteins; assay type: binding; settings: increasing amounts of GST-NCoR
Description: FIG. 1. Enhanced recruitment of NCoR by PML-RAR is due to the coiled coil region of PML. Increasing amounts of GST -NCoR (from 150 ng to 10 μg) coupled to agarose beads were incubated with the indicated in vitro translated, ^35-S labelled proteins. On the left, a schematic representation of the in vitro translated products, with the tripartite motif of PML highlighted (R, RING finger; B, B boxes; CC, coiled coil). The input lanes are loaded with the same amounts used in the pull-down experiments.
Recruitment of the NCoR-HDAC complex is crucial for the transforming potential of PML-RAR. At low concentrations of RA (1-100 nM), the stability of the PML-RAR-NCoR complex is higher than that of the RAR-NCoR complex (Grignani et al., 1998; He et al., 1998; Lin et al., 1998). […] Pull-down assays were performed by incubation of in vitro translated, ^35S labelled PML-RAR or RAR with GST-NCoR coupled to agarose beads.
GST-NCoR (1782-2453) or GST-NCoR (RDIII) purification and in vitro interaction experiments were performed as described, incubating the indicated amounts of GST-NCoR attached to a constant amount of glutathione-agarose beads in the presence of the appropriate ^35-S labelled, in vitro translated proteins(Gelmetti et al., 1998; Grignani et al., 1998; Zamir et al., 1996). The input lanes represent 100% of the total. Coimmunoprecipitation experiments were performed as described(Gelmetti et al., 1998), using extracts from transiently transfected COS-1 cells, or in vitro translated products.

Molecule | effect on differentiation of transduced progenitors [1] | binding to GST-NCoR (GST-NCoR) | differentiation block ([1]; Mac-1, 8-10 days in methylcellulose)
B1 | strong decrease in the number of Mac1+ and GR1+ cells | bound NCoR even at the lowest amounts of GST-NCoR tested | 
B2 | strong reduction in their capacity to differentiate | bound specifically to the beads even at the lowest amounts of GST-NCoR tested | about 50%
